Values quoted from earlier work as cited in publication PMC9369280.

Experiments:
Assay in all cases: SPR
FGF-2 (Homo sapiens) = FGF-2 (Homo sapiens) (UniProt P09038)
FGF-1 (Homo sapiens) = FGF-1 (Homo sapiens) (UniProt P05230)
FGFR2 (Homo sapiens) = FGFR2 (Homo sapiens) (UniProt P21802)
Sequence of UniProt P21802 (P21802 22-377): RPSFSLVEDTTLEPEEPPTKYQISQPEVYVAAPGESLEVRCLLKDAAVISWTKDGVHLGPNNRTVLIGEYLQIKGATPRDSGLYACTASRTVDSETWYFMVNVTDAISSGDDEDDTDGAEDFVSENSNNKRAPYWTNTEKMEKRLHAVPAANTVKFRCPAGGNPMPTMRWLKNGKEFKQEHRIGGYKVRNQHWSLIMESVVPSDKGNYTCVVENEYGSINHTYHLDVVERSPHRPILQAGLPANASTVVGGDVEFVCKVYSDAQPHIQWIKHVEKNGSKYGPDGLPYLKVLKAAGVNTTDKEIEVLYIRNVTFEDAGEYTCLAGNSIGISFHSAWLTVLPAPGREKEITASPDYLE

Sequence of UniProt P09038 (P09038 143-288): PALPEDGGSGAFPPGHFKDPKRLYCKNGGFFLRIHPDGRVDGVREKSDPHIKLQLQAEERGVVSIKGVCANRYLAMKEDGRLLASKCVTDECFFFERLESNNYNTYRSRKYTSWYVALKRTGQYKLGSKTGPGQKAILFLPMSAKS
Sequence of UniProt P05230 (P05230 16-155): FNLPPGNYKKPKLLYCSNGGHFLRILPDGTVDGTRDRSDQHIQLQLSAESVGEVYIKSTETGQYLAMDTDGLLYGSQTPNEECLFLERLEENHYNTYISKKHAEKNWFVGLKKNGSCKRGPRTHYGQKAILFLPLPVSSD

Kd (FGF-2 (Homo sapiens)): 5.5 nM | Kd (FGF-1 (Homo sapiens)): 3.98 nM | Kd (FGFR2 (Homo sapiens)): 7.91 nM
Substance: CCN2 (from UniProt P29279)
